The results in this text go back to doi:10.1101/2023.10.03.560691.

Ends that are not written are not given here.

Assay [1] deals with Phage λ Orf63, 6xHis-Flag affinity tagged (phage λ). The assay can be described thus: SEC-MALS. (Size exclusion chromatography separates by hydrodynamic size, large species first.)
Assay [2] has the same target. The assay can be described thus: BLI. A general note: Biolayer interferometry detects binding as a change in optical thickness at a sensor tip.

Consider “Phage λ Orf63, 6xHis-Flag affinity tagged (natural protein)”, for which the stoichiometry N (as a rule, a count of units in the complex or per binding partner) in assay [1] came to 2.

B1: 6xHis-tagged ubiquitin fusion protein with the designed Orf63 binding peptide (designed binder)
chain: GGLVPRGSGDTKELILAIARKVKEMIKNS
modifications: also: fused to 6xHis-tagged ubiquitin
B1: in assay [2], the dissociation constant (Kd) (in general, the free concentration of one partner at which half of the binding sites on the other are occupied at equilibrium, for simple one-to-one binding) is greater than 20 µM.
